Source: publication doi:10.1101/2023.01.09.523197

Molecular target: GlnR;RNAP holoenzyme (Mycobacterium …, UniProt O53830;P9WGZ1;P9WGY9;P9WGY7;P9WGY5;P9WGI1 1-255;1-347;1-1178;1-1316;1-110;1-528, |)
Test: cryo-EM

B1: amtB scaffold (dsDNA)
DNA 1: CTTCGTCACGGCGGCGAAACAACGAGGGGCTTCCACCGAAACCGCGCTGCGTTATAATGGGAGCTGTCACGGATGCA
DNA 2: TGCATCCGTGAGTCGAGGGTAATAAACGCAGCGCGGTTTCGGTGGAAGCCCCTCGTTGTTTCGCCGCCGTGACGAAG
B1: binds.
